Consider four molecules from patent US20240132581A1 (BEIJING WISDOMAB BIOTECHNOLOGY, published 2024).

The labels stand for the following.
B3: hTSLP1-m-mFc (Fc fusion)
chain: YDFTNCDFEKIKAAYLSTISKDLITYMSGTKSTEFNNTVSCSNRPHCLTEIQSLTFNPTAGCASLAKEMFAMKTKAALAIWCPGYSETQINATQAMKKVTTNKCLEQVSQLQGLWRRFNRPLLKQQPRGPTIKPCPPCKCPAPNLLGGPSVFIFPPKIKDVLMISLSPIVTCVVVDVSEDDPDVQISWFVNNVEVHTAQTQTHREDYNSTLRVVSALPIQHQDWMSGKEFKCKVNNKDLPAPIERTISKPKGSVRAPQVYVLPPPEEEMTKKQVTLTCMVTDFMPEDIYVEWTNNGKTELNYKNTEPVLDSDGSYFMYSKLRVEKKNWVERNSYSCSVVHEGLHNHHTTKSFSRTPGK
notes: also called recombinant protein hTSLP1-m-mFc

For test [1], the target named is B3. Nature of the test: SPR (Biacore T200): hTSLP1-m-mFc captured (about 80 RU) by anti-mFc antibody on CM5, antibody at 50 µg/mL [continued) C]. For orientation: In SPR one partner is held on a chip, and binding of the other changes the refractive index at the surface.
Description: (§1) The recombinant protein hTSLP1-m-mFc was diluted to 2 μg/mL with 1×HBS-EP buffer, and was injected at 10 μL/min for 12 s. Approximately 80 RU of hTSLP1-m-mFc was captured by the anti-mFc antibody. […] Two molecules were sequentially injected using a double injection mode of Biacore T200. […] Each of the molecules was injected for 90 s. The surface of the chip was regenerated at the end of the injection by injecting 10 mM glycine-HCl (pH 1.7) at 10 μL/min for 30 s. The Y-axis reporting points for the double baselines were zeroed using Biacore T200 evaluation software version 3.0, and then the RU values were plotted against times using GraphPad software.
For test [2], the target named is T1, hTSLP:hTSLPR complex (hTSLP1-m-mFc with hTSLPR-ECD bound, formed on the chip) (human (Homo sapiens), UniProt Q9HC73 23-231).
T1 construct: also called TSLP:TSLPR complex
Nature of the test: SPR (Biacore T200): chip surface with hTSLP1-m-mFc captured by anti-mFc antibody and loaded with hTSLPR-ECD, antibody at 50 µg/mL injected before hIL-7Rα-ECD [continued) B].
Description: (§2) Two molecules were sequentially injected using a double injection mode of Biacore T200. […] Each of the molecules was injected for 60 s. The surface of the chip was regenerated at the end of the injection by injecting 10 mM glycine-HCl (pH 1.7) at 10 μL/min for 30 s. The Y-axis reporting points for the double baselines were zeroed using Biacore T200 evaluation software version 3.0, and then the RU values were plotted against times using GraphPad software.

Test [3] addresses B3. The experiment in a line: SPR (Biacore T200): hTSLP1-m-mFc captured (about 80 RU) by anti-mFc antibody on CM5, antibody at 50 µg/mL [continued) D].
Description: as §1
Test [4] has as its target T1, hTSLP:hTSLPR complex (hTSLP1-m-mFc with …). Nature of the test: SPR (Biacore T200): chip surface with hTSLP1-m-mFc captured by anti-mFc antibody and loaded with hTSLPR-ECD, antibody at 50 µg/mL injected before hIL-7Rα-ECD [continued) C].
Description: as §2
The target of test [5] is T2, extracellular domain of human TSLP receptor (hTSLPR-ECD) (human (Homo sapiens), UniProt Q9HC73 23-231).
T2 sequence: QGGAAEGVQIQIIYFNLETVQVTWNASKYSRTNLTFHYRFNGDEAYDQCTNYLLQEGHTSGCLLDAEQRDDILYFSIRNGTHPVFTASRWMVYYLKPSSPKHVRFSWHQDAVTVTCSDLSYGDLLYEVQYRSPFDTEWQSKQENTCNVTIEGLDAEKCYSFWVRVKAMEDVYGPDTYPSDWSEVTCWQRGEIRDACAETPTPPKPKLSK
Nature of the test: SPR (Biacore T200): hTSLP1-m-mFc captured (about 80 RU) by anti-mFc antibody on CM5, buffer then hTSLPR-ECD at 100 µg/mL.
Description: as §1

Test [6] deals with T1, hTSLP:hTSLPR complex (hTSLP1-m-mFc with …). The experiment in a line: SPR (Biacore T200): chip surface with hTSLP1-m-mFc captured by anti-mFc antibody and loaded with hTSLPR-ECD, antibody at 50 µg/mL injected before hIL-7Rα-ECD [continued) D].
Description: as §2
The target in test [7] is B3. Nature of the test: SPR (Biacore T200): hTSLP1-m-mFc captured (about 80 RU) by anti-mFc antibody on CM5, antibody at 50 µg/mL [continued) E].
Description: as §1
The target in test [8] is cynomolgus monkey TSLP (mfTSLP) (cynomolgus monkey (Macaca fascicularis)). Nature of the test: SPR Biacore X100 as in Example 3.1, antibody captured, mfTSLP as analyte.

B1: H3B10-M1+L3E8-M7 (humanized monoclonal antibody) (antibody, V domains shown)
VH: QVTLKESGPVLVKPTETLTLTCTVSGFSLSSYDISWIRQPPGKALEWLGVIWSEGGTSYSTSLKSRLTISKDTSKSQVVLTMTNMDPVDTATYYCARDSDDGYLNWGQGTLVTVSS
VL: EIVMTQSPATLSVSPGERATLSCSVSSSISSSNLHWYQQKPGQAPRPWIYGTSNLASGIPARFSGSGSGTEFTLTISSVQAEDFAVYYCQQWSSYPLTFGQGTKLEIK
notes: Expressed as a whole antibody
For B1, the binding result (with hTSLP1-m-mFc [1]; in test [2]) was “binds” throughout.

B2: H1A10+L3E8-M7 (humanized monoclonal antibody) (antibody, V domains shown)
VH: QVQLVQSGAEVKKPGASVKVSCKASGYAFSNYWMNWVRQAPGQGLEWMGQIFPGDSDTDYDQKFQGRVTMTRDTSTSTVYMELSSLRSEDTAVYYCARAGYYRGYYAMDYWGQGTTVTVSS
VL: EIVMTQSPATLSVSPGERATLSCSVSSSISSSNLHWYQQKPGQAPRPWIYGTSNLASGIPARFSGSGSGTEFTLTISSVQAEDFAVYYCQQWSSYPLTFGQGTKLEIK
notes: Expressed as a whole antibody
In the case of B2, the binding result (with hTSLP1-m-mFc [3]; in test [4]) was “binds” throughout.
For B3, the binding result in test [5] is listed as “binds”.

B4: H1A10×H3B10-M1+L3E8-M7 BsAb (anti-human TSLP bispecific antibody) (bispecific antibody, human IgG1, kappa)
heavy 1: QVQLVQSGAEVKKPGASVKVSCKASGYAFSNYWMNWVRQAPGQGLEWMGQIFPGDSDTDYDQKFQGRVTMTRDTSTSTVYMELSSLRSEDTAVYYCARAGYYRGYYAMDYWGQGTTVTVSSASTKGPSVFPLAPSSKSTSGGTAALGCLVKDYFPEPVTVSWNSGALTSGVHTFPAVLQSSGLYSLSSVVTVPSSSLGTQTYICNVNHKPSNTKVDKRVEPKSCDKTHTCPPCPAPEFEGGPSVFLFPPKPKDTLMISRTPEVTCVVVDVSHEDPEVKFNWYVDGVEVHNAKTKPREEQYNSTYRVVSVLTVLHQDWLNGKEYKCKVSNKALPASIEKTISKAKGQPREPQVYTLPPCREEMTKNQVSLWCLVKGFYPSDIAVEWESNGQPENNYKTTPPVLDSDGSFFLYSKLTVDKSRWQQGNVFSCSVMHEALHNHYTQKSLSLSPGK
heavy 2: QVTLKESGPVLVKPTETLTLTCTVSGFSLSSYDISWIRQPPGKALEWLGVIWSEGGTSYSTSLKSRLTISKDTSKSQVVLTMTNMDPVDTATYYCARDSDDGYLNWGQGTLVTVSSASTKGPSVFPLAPSSKSTSEGTAALGCLVKDYFPEPVTVSWNSGALTSGVHTFPAVLQSSGLYSLSSVVTVPSSSLGTQTYICNVDHKPSNTKVDKTVEPKSCDKTHTCPPCPAPEFEGGPSVFLFPPKPKDTLMISRTPEVTCVVVDVSQEDPEVQFNWYVDGVEVHNAKTKPREEQYNSTYRVVSVLTVLHQDWLNGKEYKCKVSNKALPASIEKTISKAKGQPREPQVCTLPPSQEEMTKNQVSLSCAVKGFYPSDIAVEWESNGQPENNYKTTPPVLDSDGSFFLVSKLTVDKSRWQEGNVFSCSVMHEALHNHYTQKSLSLSPGK
light: EIVMTQSPATLSVSPGERATLSCSVSSSISSSNLHWYQQKPGQAPRPWIYGTSNLASGIPARFSGSGSGTEFTLTISSVQAEDFAVYYCQQWSSYPLTFGQGTKLEIKRTVAAPSVFIFPPSDEQLKSGTASVVCLLNNFYPREAKVQWKVDNALQSGNSQESVTEQDSKDSTYSLSSTLTLSKADYEKHKVYACEVTHQGLSSPVTKSFNRGEC
notes: also called bispecific antibody H1A10×H3B10-M1+L3E8-M7; bispecific antibody H1A10×H3B10-M1
A word on the Kd: it is the constant that tells how readily two partners part at equilibrium. Turning to B4, the binding result (in test [6]; in the test with hTSLP1-m-mFc [7]) was “binds” in each case. The same molecule gave a Kd in test [8] of 2.75 nM.
